Assay [1] addresses T1, recombinant human TNF-α (human, UniProt P01375 77-233). Kind of assay: cell-based or functional assay.
Assay [2] deals with T2, recombinant human sclerostin (human, UniProt Q9BQB4 24-213).
T2 construct: biotinylated in the ELISAs; also called hu sclerostin; hu scl
T2 sequence: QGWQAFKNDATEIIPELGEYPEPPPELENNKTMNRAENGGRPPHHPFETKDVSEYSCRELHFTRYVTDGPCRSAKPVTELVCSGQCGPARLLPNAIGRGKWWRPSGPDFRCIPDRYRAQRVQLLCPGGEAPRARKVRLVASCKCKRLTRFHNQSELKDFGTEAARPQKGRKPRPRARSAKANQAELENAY
Kind of assay: SPR. Here is the method: (§1) The binding of antibodies or anti-sclerostin-TNF DVD to purified recombinant human, cynomolgus monkey (cyno), rat and mouse sclerostin and TNFα was determined by surface plasmon resonance-based measurements with a Biacore T100 or T200 instruments (GE Healthcare Life Sciences, Piscataway, N.J., USA) using running HBS-EP+ (10 mM HEPES [pH 7.4], 150 mM NaCl, 3 mM EDTA, and 0.005% surfactant P20) containing additional 150 mM NaCl, and/or 10 mg/ml carboxymethyl dextran, 0.1 mg/ml BSA at 25° C. All chemicals were obtained from GE Healthcare Life Sciences, Piscataway, N.J., USA or otherwise from a different source as described in the text. Approximately 10,000 RU (or 3000 RU when CM3 chip was used) of goat anti-mouse or anti-human IgG (Fcγ) fragment specific polyclonal antibody (Pierce Biotechnology Inc, Rockford, Ill.) diluted in 10 mM sodium acetate (pH 4.5) was directly immobilized across a CM5 (or CM3) research grade biosensor chip using a standard amine coupling kit according to manufacturer's instructions and procedures at 15 μg/ml. Unreacted moieties on the biosensor surface were blocked with ethanolamine. Modified carboxymethyl dextran surface in flowcells 2, 3 and 4 were used as a reaction surface. Modified carboxymethyl dextran in flow cell 1 was used as the reference surface. Biaevaluation T100 software version 2.0.2, GE Healthcare Life Sciences was used to simultaneously fit association and dissociation phases of all injections (using 1:1 fit analysis with local Rmax). Purified antibodies were diluted in running buffer for capture across goat anti-mouse or anti-human IgG specific reaction surfaces. Antibodies to be captured as a ligand (1 μg/ml) were injected over reaction matrices at a flow rate of 10 μl/minute. The association and dissociation rate constants, kon (unit M-1 s-1) and koff (unit s-1) were determined under a continuous flow rate of 50 μl/minute. […] At the end of each cycle the surfaces were regenerated with 10 s injection of 50 mM NaOH or/and by 10 s injection of 10 mM Glycine pH1.5 at a flow rate of 100 μl/min.

In assay [3] the target is T3, recombinant cynomolgus monkey sclerostin (cynomolgus monkey).
T3 construct: also called cyno sclerostin; Cyno sclerostin
Kind of assay: SPR. Here is the method:
as §1
In general terms: SPR reads the build-up and loss of mass on a sensor chip optically.

Assay [4] deals with T1, recombinant human TNF-α. Kind of assay: SPR. Here is the method: as §1
The next assay has as its target Rhesus/cynoTNFa (Rhesus/cyno). Kind of assay: cell-based or functional assay.
For assay [5], the target named is T1, recombinant human TNF-α. The experiment in a line: cell-based or functional assay. This is another data set of the same source.
Assay [6] concerns the target T2, recombinant human sclerostin. Kind of assay: direct bind ELISA.

As usually defined, the Kd is the concentration at which binding is half-saturated. The koff is a measure of how fast the partners let go of each other. As a reminder, the kon is the rate constant with which the complex forms.

T1 sequence (P01375 77-233 limits assumed): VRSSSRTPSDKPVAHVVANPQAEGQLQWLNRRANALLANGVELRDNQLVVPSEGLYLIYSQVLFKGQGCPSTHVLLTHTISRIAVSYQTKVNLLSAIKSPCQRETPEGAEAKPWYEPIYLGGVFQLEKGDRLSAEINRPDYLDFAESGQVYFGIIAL
Chain of Rhesus/cynoTNFa (Rhesus/cyno) (P48094 whole entry): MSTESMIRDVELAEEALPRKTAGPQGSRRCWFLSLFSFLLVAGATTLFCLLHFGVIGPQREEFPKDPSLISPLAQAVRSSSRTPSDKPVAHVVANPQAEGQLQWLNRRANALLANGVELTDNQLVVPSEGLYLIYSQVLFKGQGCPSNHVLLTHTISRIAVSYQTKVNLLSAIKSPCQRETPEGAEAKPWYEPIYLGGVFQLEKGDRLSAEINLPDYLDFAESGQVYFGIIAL

B1: MAK199-1-GS-AE10-6 AM7 (bispecific antibody, human IgG1, lambda, L234A L235A)
heavy: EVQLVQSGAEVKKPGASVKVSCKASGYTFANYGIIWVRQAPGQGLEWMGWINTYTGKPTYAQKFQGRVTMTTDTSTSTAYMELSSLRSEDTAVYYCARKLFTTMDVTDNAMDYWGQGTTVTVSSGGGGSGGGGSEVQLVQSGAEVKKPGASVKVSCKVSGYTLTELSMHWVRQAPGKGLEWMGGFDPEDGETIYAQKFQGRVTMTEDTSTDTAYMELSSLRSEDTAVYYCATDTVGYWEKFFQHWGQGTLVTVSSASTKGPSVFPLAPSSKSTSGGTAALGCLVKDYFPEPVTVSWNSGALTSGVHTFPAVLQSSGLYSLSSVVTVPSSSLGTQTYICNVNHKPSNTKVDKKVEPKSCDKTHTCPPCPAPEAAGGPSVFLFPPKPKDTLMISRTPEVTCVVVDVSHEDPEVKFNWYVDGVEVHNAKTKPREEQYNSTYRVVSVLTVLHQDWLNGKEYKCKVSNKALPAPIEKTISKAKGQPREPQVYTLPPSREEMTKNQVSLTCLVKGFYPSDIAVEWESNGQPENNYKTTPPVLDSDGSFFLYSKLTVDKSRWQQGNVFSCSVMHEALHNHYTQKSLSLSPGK
light: DIQMTQSPSSLSASVGDRVTITCRASQDISQYLNWYQQKPGKAPKLLIYYTSRLQSGVPSRFSGSGSGTDFTLTISSLQPEDFATYFCQQGNTWPPTFGQGTKLEIKRGGSGGGGSGQAVVTQEPSLTVSPGGTVTLTCGSSTGTVTIDHYPYWFQQKPGQAPRTLISDTDDKHSWTPARFSGSLLGGKAALTLSGAQPEDEAEYYCLLDYGGRFVFGGGTKLTVLGQPKAAPSVTLFPPSSEELQANKATLVCLISDFYPGAVTVAWKADSSPVKAGVETTTPSKQSNNKYAASSYLSLTPEQWKSHRSYSCQVTHEGSTVEKTVAPTECS
notes: DVD-Ig: outer MAK199-1, inner AE10-6 AM7; also called MAK199-1-GS-AM10-6 AM7; MAK199-1GSAM10-6 AM7
B1: in the assay with recombinant human TNF-α [1], the “L929 TNF neutralization IC50 with 50 nM SOST” value is 0.036 nM and the “L929 TNF neutralization IC50 without 50 nM SOST” value stood at 0.025 nM. For the same molecule, in assay [2], the Kd was found to be 0.00039 nM, the koff was determined as 2.3e-06 s⁻¹ and the kon came to 5.9e+06 M⁻¹ s⁻¹. Besides, in assay [3], the Kd was under 0.00011 nM, the koff was under 1e-06 s⁻¹ and the kon amounted to 9.3e+06 M⁻¹ s⁻¹. Moreover, in the assay with recombinant human TNF-α [4], the Kd came to 0.027 nM, the koff was 5.8e-05 s⁻¹ and the kon came out at 2.1e+06 M⁻¹ s⁻¹. In the assay with Rhesus/cynoTNFa, the “L929 TNF neutralization IC50” value amounted to 0.042 nM. For the same molecule, the “L929 TNF neutralization IC50” value with recombinant human TNF-α [5] came out at 0.0677 nM.

B2: MAK199-1-SS-AE10-6 AM7 (bispecific antibody, human IgG1, lambda, L234A L235A)
heavy: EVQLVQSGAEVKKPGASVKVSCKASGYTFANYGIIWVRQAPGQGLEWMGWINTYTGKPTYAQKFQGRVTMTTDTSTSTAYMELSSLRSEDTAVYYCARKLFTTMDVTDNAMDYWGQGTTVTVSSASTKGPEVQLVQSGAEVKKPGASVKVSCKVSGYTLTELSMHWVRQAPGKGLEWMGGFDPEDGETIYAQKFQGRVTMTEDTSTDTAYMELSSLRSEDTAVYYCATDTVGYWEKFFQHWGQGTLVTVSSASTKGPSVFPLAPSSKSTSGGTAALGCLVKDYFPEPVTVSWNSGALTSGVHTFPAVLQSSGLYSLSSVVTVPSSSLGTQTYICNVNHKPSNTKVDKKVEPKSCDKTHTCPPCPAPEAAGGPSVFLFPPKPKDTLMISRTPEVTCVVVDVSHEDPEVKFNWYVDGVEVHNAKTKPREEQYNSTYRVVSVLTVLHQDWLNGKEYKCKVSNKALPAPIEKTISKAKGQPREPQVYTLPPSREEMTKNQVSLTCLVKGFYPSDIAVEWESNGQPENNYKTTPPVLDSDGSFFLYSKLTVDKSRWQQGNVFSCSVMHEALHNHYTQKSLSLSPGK
light: DIQMTQSPSSLSASVGDRVTITCRASQDISQYLNWYQQKPGKAPKLLIYYTSRLQSGVPSRFSGSGSGTDFTLTISSLQPEDFATYFCQQGNTWPPTFGQGTKLEIKRTVAAPQAVVTQEPSLTVSPGGTVTLTCGSSTGTVTIDHYPYWFQQKPGQAPRTLISDTDDKHSWTPARFSGSLLGGKAALTLSGAQPEDEAEYYCLLDYGGRFVFGGGTKLTVLGQPKAAPSVTLFPPSSEELQANKATLVCLISDFYPGAVTVAWKADSSPVKAGVETTTPSKQSNNKYAASSYLSLTPEQWKSHRSYSCQVTHEGSTVEKTVAPTECS
notes: DVD-Ig: outer MAK199-1, inner AE10-6 AM7
Consider B2, for which, in assay [2], the Kd is 0.052 nM, the koff came to 8.3e-06 s⁻¹ and the kon is 160000 M⁻¹ s⁻¹. Also, in the assay with recombinant human TNF-α [4], the Kd stood at 0.017 nM, the koff worked out at 4.4e-05 s⁻¹ and the kon came to 2.6e+06 M⁻¹ s⁻¹. Also, the “L929 TNF neutralization IC50” value in the assay with Rhesus/cynoTNFa worked out at 0.0569 nM. Moreover, in the assay with recombinant human TNF-α [5], the “L929 TNF neutralization IC50” value amounted to 0.0581 nM.

B3: MSK9 (antibody, V domains shown)
VH: EVQLLESGGGLVQPGGSLRLSCAASGFTFRSYWMSWVRQAPGKGLEWVASIKQDGSKKHYADSVKDRFIISRDNAKKSLSLQMKRMRAEDTAVYYCAADLNPHWLVGWGQGTLVTVSS
VL: DIVMTQTPLSLPVTPGEPASISCRSSQSLLHSNGYNYLDWYLQKPGQSPQLLIYLGSKRASGVPDRFSGSGSGTDFTLKISRVGAEDVGVYYCMQGLQTPKAFGPGTKVDIKR
notes: fully human mAb
For B3, the binding result in assay [6] is reported as “binds”.

B4: MSK13 (antibody, V domains shown)
VH: EMQLVQSGAEVKKPGASVKVSCKASGYTFSGYYMNWVRQAPGQGLEWMGWINPYSGAATYAQDFQGRITVTRDTSISTGYMELTRLTSTDTAVYYCARGGTITGASWYFDVWGRGTLVTVSS
VL: DIVMTQTPLSLPVTLGQPASISCRSSQSLVHSDGNTYLNWFQQRPGQSPRRLIYKVSNRDSGVPDRFSGSGSGTDFTLKISRVEAEDVGVYYCMQGTHWPQLTFGGGTKVEIKR
notes: fully human mAb
For the molecule B4, in assay [6], the binding result was “binds”.

B5: MSK21 (antibody, V domains shown)
VH: EVQLQQSGPGLVKPSQTLSLTCAISGDSVSSNIVAWNWIRQSPSRGLEWLGRTYYTSKWFNQYAMSVKSRITINPDTSKNQVSLKLSSVTAADTAAYYCARVGGTYDFWSGYYRPYYYGMDVWGQGTMVTVSS
VL: DIRLTQSPSSLSASIGDTVTISCRSSQPINTHLNWFRQLPGRAPELLIYGSSSLHTGVPSRFSGSGSGTDFTLTITSLQRGDFLTYYCQQTHRLPITFGQGTRLDIKR
notes: fully human mAb
Turning to B5, in assay [6], the binding result is reported as “binds”.

For the origin of these results see patent US20150266977A1 (AbbVie / Abbott, published 2015).
